The domain aggregation screens of Martell et al. (2025)

Experiment: soluble fraction after stress (log2 fold change); higher = more stays soluble; pooled small domains, quantitative proteomics
Settings: stress: 50 degC
Method in brief: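 Pooled custom libraries of small protein domains were measured in a high-throughput format, with quantitative proteomics as the read-out. Each library was stressed at 50°C. Aggregation propensity is given as the base-two logarithm of the fold change in how much of each protein stays soluble after the stress. Higher values mean a larger share of the protein remains in solution.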

| Sequence | soluble fraction (log2) |
| --- | --- |
| HMEYELYALKEEVLKRLTREDRELLILLFEERRTIHAVAQRLGLSDSAVYKRRTQLVNKVKVIASMLM | -2.13 |
| HMSPAPVSVDHLAFPTRDLEATDHFYSKVVGATLVHAESGYSPSWKSDYLLITYALPDGTRLSFFDWP | 0.0261 |
| HMRKDWTPGAFVEAFVNDTPATRSTILAKAVSAGLSRWAADNLLRTADNDGLMVRQGSGKRNEPFTYRRGP | -0.196 |
| HMSESLRDLVLSLIPEDGSTIGNRALITRLREDLPDLTDEDYHEVRDQLIAEGVLAKGRGQGGSVARANG | 0.205 |
| HMANHIAAIHVLKSKLQMSDSDYRVLITGLTQKASTKDMSDIERQRVRDHMQGLAERMGVVK | -0.18 |
| HMDRRSTTLQDIYTRIDAEEISEALELIPKLGEIEFEQNRAEIAEAAGVRPAVLDKLRKQAAKQENNKK | -0.0355 |
| HMEADERRNEILDAAETLITEKGYSKTTIIDILNQVGIAKGTFYYYFKSKEEVMDAIIERFI | -2.25 |
| HMDISAFDTEFIISKFGGIRPMAQKLGVPVSTVQGWKQRQTIPQNRMGDILEAAKNYNLELTP | 0.0856 |
| HMIDYTDTSAVKDSAAVAGRVREMINEGVPIADVNAFIRSASENGLISDDSARRLRYMNDSR | 0.0307 |
| HMTGIRVYPNPTSSELRFSVATDAALYDATGARLRVVRGSDMMDIRDLASGTYYVRFADGSTQSVVVT | -0.198 |
| HMDRSKREKEQQELMLKVQQIFDDNQQRFGAEKIRTVLAQNGVRVSVKRVSAIMQELNLRSIR | -0.871 |
| HMNGTEAIRRYIDQFASKHATTPRMLKLNERKQLIQELKNNGLLEIKKAVETVAQHLGISRASAYLYVKE | -0.303 |
| HMANILKHKNKDGVITSYTIRVYHGYDEAGKRLRPYTMNYKPAPNMTARQIEKELNRQAVQFEEQIKNGYA | -0.699 |
| HMGQAEEVRYSTFLDEVRNGRIEQVVLQGEHIIGTRKDKTVFSVFNPETDYTALIGTLSKSGVTIEGRP | 0.081 |
| HMLSPAQSLLLRTAARRPDGRVIPPDTLRGGARVKVLTSLLQRGWIEPVDGGHVLTDAGYAAIG | -0.353 |
| HMRVPQWLVDKIAAAGIDTHRSGPALKALAAKAGTPEQLDQAIARAKALRRRTGSTQSLNVGLLGSILEGT | -0.106 |
| HMDLPAEFSKPELETLFKRGKQSGELSLTEVRDALEAAQLPNKKTQTKVLKVLSDNAIHVLMDG | 0.146 |
| HMPPPVDLDKKGYKLRGIVLEDGRSAAFVFVPAEKRVVVLRENASGPVRLLETGMRRIRLQTPEGAGYLEL | -0.724 |
| HMENLTLVIGNKLKNIRNSRNLSLDDVAELTGVSKAMLGQIERGKSNPTVSTLWKISTGLRVSFSSFIDE | -2.2 |

| Sequence | soluble fraction (log2) |
| --- | --- |
| HMAAPLTDRETEVLTLLARGLINKQIAEELHIGLTTVITHRRNIMEKLRVRSLAELILRAVAAGYVDAGR | -1.77 |
| HMAQSEDLMVMAQRILGGPEAQSFFQAEATRQGLAGFLPEPIPDFLQRLERKLSGSVGSATAHAMVAQTMG | -0.179 |
| HMEVSLEDKMDYLTNYATTHKNFSFRNLLESSSGKIEVIVTFLAILELMKMGRINISQEHIFDDIIIESRI | -2.53 |
| HMEREQNIEHGRAIVERELKRLGLSDVYTIADIATALRHDDVDQFLAKIGFGDIQSTQIGGAIAALQQR | -0.0664 |
| HMGLPLETVVTHATKLEIVRDGRVSGSIGLSAGVKVDVIALEGDNLQVRYRSLSGRVPVAHTGLAALA | 0.105 |
| HMRREIRLTVTEEIVLMKFLLTQIPYKNRDNFKTLLNDRQIRVNGSVVTWYNHPLKPGQEVTIGWFKM | -0.168 |
| HMGDTHKVPGVKGVNVEQAMDMLSRLDLKAVVIDSVYVKDKKLGTVIEQNPVEGSVVKPGRPIYLVVNSRS | 0.242 |
| HMQQGVEQLPVTEVGGRLMHYYEVQPKETLYSLSHKLGVGQEYIEQHNPSVRGGLRAFMTLYFPAA | -0.0212 |
| HMGFSERLAQAMSHAGYTQGGLAKAVGMAQSSVNKLLNNANSSRKTVEIASVLGVRPEWLSTGEGDML | 0.00207 |
| HMKTKTFSPGEIVKIQTRDKSWQGTILESHDPEIILLKLTTGYNIGIRENEIINAKVIEKSKKDVKDAE | 0.183 |
| HMMESLGIRLKRLRKDKGLTQVELGKLSGVTGVTIGYWEKDLNEPGSKALSKLAQALGTTESYLLYGVS | -0.634 |
| HMNVRAYKVSKESELTVEEKLEAVRGYGVADLLYVIREFEENPGKYEPEVIKLIVQQLTDKGIM | 0.199 |
| HMQISDDGFILKIINEVVAENPKSISDYISGKEAAVGFLVGQIMKKTRGKANPKLVNEMLITELAKLKN | -0.0439 |
| HMSEFVIPLAKYNKALYTQVSLGMRFRMLFETEDSGVRRYMGTITGIGDLDPIRWKNSHWRNLQV | 0.111 |
| HMENLQLQQLVKGLPEKMQEIVILRFSQELTMREIADIVNLPMRTVQSQLRLALKILKKEMG | -0.447 |
| HMKEVKRDQVIEAARKLFHQFGFKKVSMDEIAKEAGVTKKTIYMYFESKEELLKYFIQEEISN | -0.224 |
| HMGDITIPDLQGMSFDQAREKLKALGLSIGKISYTSDTSKDDGVVISQGLQAGGKASKGATVDITINET | 0.0588 |
| HMFFDSDTDIQNALNAENSIKKYQLFRTQTLYNSAQSDIDFVNQPEVKAKLFDALENLKNKLGFLAEPT | -0.247 |
